Earlier results in article PMC3910004.

Target: T1, human interleukin-6 receptor (hIL-6R) (Homo sapiens) (UniProt P08887)
T1 sequence: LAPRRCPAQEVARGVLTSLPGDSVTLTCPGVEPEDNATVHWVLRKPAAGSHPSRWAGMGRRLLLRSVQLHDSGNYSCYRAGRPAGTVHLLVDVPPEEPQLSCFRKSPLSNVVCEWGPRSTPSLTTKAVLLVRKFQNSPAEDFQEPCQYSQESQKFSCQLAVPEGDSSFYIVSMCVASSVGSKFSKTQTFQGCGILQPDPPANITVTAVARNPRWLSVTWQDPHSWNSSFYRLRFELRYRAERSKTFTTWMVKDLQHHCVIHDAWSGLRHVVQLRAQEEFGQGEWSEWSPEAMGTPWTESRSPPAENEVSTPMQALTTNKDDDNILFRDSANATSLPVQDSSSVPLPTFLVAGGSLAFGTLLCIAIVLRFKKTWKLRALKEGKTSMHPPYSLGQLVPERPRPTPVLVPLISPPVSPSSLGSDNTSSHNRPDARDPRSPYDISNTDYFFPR
Details: Cell binding by flow cytometry, 50 nM conjugate, 45 min, serum-free medium, 37 °C (stated for the uptake in cytotoxicity assays); binding buffer details not in …

GGGGAGGCUGUGGUGAGGG [AIR-3A]
Kd: 8.5 nM
